Data: patent US20110256557A1, “IDENTIFYING PARATHYROID HORMONE AGONISTS AND ANTAGONISTS” (DISCOVERYBIOMED, INC., priority 2008, published 2011)

Tests used:
LRP6 = LRP6 phosphorylation at PPPSP motifs, western blotting with Ab1490, UMR-106 cells; assay type: cell-based, rat; conditions: UMR-106 cells, endogenous LRP6, Ab1490
Protocol: Cells were harvested in cavitation buffer (5 mM HEPES, pH 7.4, 3 mM MgCl2, 1 mM EGTA, 250 mM sucrose) containing protease and phosphatase inhibitors and homogenized by nitrogen cavitation (200 p.s.i., for 5 minutes) in a cell disruption bomb (Parr Instrument Co.; Moline, Ill.). The cell homogenate was centrifuged twice at 700 g for 10 minutes to pellet the nuclei. The supernatant was further centrifuged at 100,000 g (Beckman SW50.1 rotor) for 1 hour to separate the membrane and cytosol fractions, and the resulting membrane pellet was washed three times with cavitation buffer before use in the assays (Zhang et al., Biochem. J. 343:541-9 (1999)). Immunoprecipitation and Western blot analysis of cell lysates were performed as described previously (Wan et al., Am. J. Pathol. 166:1379-92 (2005)).
As phosphorylation of LRP6 at the PPPSP motifs plays a crucial role in activating downstream β-catenin signaling by Wnt, whether PTH induces phosphorylation of LRP6 at PPPSP motifs (Mao et al., Mol. Cell. 7:801-9 (2001); Tamai et al., Mol. Cell. 13:149-56 (2004); Davidson et al., Nature 438:867-72 (2005); Zeng et al., Nature 438:873-7 (2005)). Immunoprecipitated LRP6 from extracts of PTH-treated UMR-106 cells were monitored for their phosphorylation, by western blotting, with an antibody that recognizes phosphorylated PPPSP motifs (Ab1490) (Tamai et al., Mol. Cell. 13:149-56 (2004)). […] Phosphorylation of PPPSP motifs is required for axin recruitment from cytoplasm to LRP6 at cell membrane. […] Fz8CRD, a competitive inhibitor of the Wnt receptor Fz (Hsieh et al., Proc. Natl. Acad. Sci. USA 96:3546-55 (1999)), was used to exclude the possibility that these PTH effects are mediated through promotion of Wnts production or sensitization of Wnt-stimulated signaling. […] In contrast, LRP6N blocked PTH-stimulated LRP6 phosphorylation (FIG. 33).

CFP-PTH1R and YFP-LRP6 = biological target: T1, CFP-PTH1R and YFP-LRP6 (Homo sapiens, UniProt Q03431); assay: Photobleaching-based FRET of CFP-PTH1R and YFP-LRP6 in HEK293 cells; assay type: cell-based
T1 construct: expressed in transfected cells; host or cells: HEK293
T1 sequence (Q03431 27-593): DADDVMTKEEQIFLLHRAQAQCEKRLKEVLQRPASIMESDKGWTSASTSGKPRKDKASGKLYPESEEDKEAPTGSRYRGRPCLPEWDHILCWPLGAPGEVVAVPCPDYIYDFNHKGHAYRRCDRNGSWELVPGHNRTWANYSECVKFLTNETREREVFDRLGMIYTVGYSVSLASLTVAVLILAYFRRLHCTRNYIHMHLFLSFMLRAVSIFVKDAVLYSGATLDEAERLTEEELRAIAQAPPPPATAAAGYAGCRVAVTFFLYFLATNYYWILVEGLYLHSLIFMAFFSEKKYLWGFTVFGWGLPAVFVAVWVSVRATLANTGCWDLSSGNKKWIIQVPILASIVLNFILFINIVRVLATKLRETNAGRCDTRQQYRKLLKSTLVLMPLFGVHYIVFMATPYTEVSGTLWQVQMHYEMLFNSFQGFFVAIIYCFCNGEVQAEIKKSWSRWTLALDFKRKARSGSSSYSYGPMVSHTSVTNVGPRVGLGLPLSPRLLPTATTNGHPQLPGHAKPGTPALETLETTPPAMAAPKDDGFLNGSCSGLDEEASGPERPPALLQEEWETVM
From the text: PTH1R and BMPRII cDNAs were cloned into ECFP-N1, and LRP6 and mLRP4T100 cDNAs were cloned into EYFP—N1 (Clonetech; Palo Alto, Calif.) expression vectors. These vectors were modified by site-directed mutagenesis that prevents the self-dimerization (Bhatia et al., Proc. Natl. Acad. Sci. USA 102:15569-74 (2005)). CFP and YFP were fused at the C-termini of the receptors. Because CFP-PTH1R or CFP-BMPRII (the fluorescent FRET donors) is quenched when in the proximity of YFP-LRP6 or YFP-mLRP4T100 (the acceptors), FRET efficiency can be measured by comparing donor fluorescence pre- and post-photobleaching of the acceptor. […] HEK293 cells on coverslips in 35 mm dishes were cotransfected with 0.1 μg of each plasmid. Cells were observed using Leica TCS SP II AOBS laser-scanning confocal microscope. An excitation wavelength of 405 nm and an emission range of 416-492 nm, and an excitation wavelength of 514 nm and an emission range of 525-600 nm were used to acquire images of CFP and YFP, respectively. YFP was photobleached by using full power of the 514 nm line for 1-2 minutes. An image of CFP and YFP fluorescence after photobleaching was obtained by using the respective filter sets. Images were representatives of three experiments. The FRET efficiencies were calculated according to: FRET eff %=[(Donorpost−Donorpre)/(Donorpost)]

FRET efficiency between CFP-PTH1R and YFP-LRP6 (CFP-PTH1R and YFP-LRP6): increased
FRET efficiency in control pairs YFP-LRP6/CFP-BMPRII and CFP-PTH1R/YFP-mLRP4T100 (CFP-PTH1R and YFP-LRP6): did not enhance the FRET efficiency
Substance: Parathyroid hormone [PTH]
phosphorylation of LRP6 at the PPPSP motifs (LRP6): rapidly induced
